According to PMC5087658, “Essential role of the Dishevelled DEP domain in a Wnt-dependent human-cell-based complementation assay” (Journal of Cell Science, 2016):
Values joined by “and” are separate entries in the source; they are usually repeats but may differ in a detail not shown here. Equal entries are not always repeated.

T1: DVL2 PDZ domain (PDZ_(265-361)), wt, 15N-labelled (human, UniProt O14641 265-361, 15N-labelled)
T1 construct: Dishevelled 2 (DVL2), human, PDZ domain, residues 265-361; Tag was followed by the linker ENLYFQS (TEV site); also called wt 15N-PDZ; minimal PDZ domain of DVL2; source: E. coli BL21-CodonPlus(DE3)-RIL, purified (NiNTA), Lip tag cleaved with TEV protease; not shown: His6, N-terminal, cleaved; Lip, N-terminal, cleaved
T1 sequence (looked up): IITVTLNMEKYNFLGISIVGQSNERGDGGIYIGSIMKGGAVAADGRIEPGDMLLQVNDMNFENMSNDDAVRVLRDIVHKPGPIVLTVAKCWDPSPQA


Key:
SNAP–FZD5 = SNAP–FZD5 (UniProt Q13467); test: FZD5-dependent recruitment of DEP-GFP to the plasma membrane, cells scored by fluorescence microscopy; conditions: HEK293T cells, 100 cells scored in each case, read off a plot; for other: % of cells with no FZD5 recruitment: parent: est. 12; for other: % of cells with weak FZD5 recruitment: parent: est. 36; for other: % of cells with strong FZD5 recruitment: parent: est. 52
SNAP–FZD5, sequence (Q13467 27-585): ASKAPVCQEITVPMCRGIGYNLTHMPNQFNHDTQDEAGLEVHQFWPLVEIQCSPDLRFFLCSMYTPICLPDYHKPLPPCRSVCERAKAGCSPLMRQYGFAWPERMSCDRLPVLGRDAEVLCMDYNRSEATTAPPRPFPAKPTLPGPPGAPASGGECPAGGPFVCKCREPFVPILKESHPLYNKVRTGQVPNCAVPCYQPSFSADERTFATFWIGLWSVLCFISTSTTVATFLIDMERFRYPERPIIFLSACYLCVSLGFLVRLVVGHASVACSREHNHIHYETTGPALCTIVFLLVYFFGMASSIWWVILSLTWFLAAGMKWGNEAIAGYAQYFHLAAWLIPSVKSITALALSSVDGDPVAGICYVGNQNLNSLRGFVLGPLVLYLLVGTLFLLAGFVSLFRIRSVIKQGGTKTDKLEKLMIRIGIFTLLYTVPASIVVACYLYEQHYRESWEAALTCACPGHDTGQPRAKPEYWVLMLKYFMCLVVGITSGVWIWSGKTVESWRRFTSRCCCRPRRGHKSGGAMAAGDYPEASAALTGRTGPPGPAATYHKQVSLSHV

[1] = molecular target: the molecule itself; test: SEC-MALS; phosphate-buffered saline, GE Superdex S-200 10/300 analytical column; unfractionated purified Lip–DEP
[2] = molecular target: the molecule itself; test: SEC-MALS; not shown; tetramerisation of the K446M DEP domain
[3] = molecular target: T1, DVL2 PDZ domain (PDZ_(265-361)), wt, …; test: NMR titration; 1H-15N correlation spectra (fast-HSQC or BEST-TROSY) of 100 µM 15N-PDZ alone or with 3x molar excess (300 µM) of DVL-C or Lip–FZD peptide; 298 K, aqueous phosphate buffer at physiological ionic strength, pH 6.7; conditions: both partners purified

| other: % of cells with no FZD5 recruitment (SNAP–FZD5) | other: % of cells with weak FZD5 recruitment (SNAP–FZD5) | other: % of cells with strong FZD5 recruitment (SNAP–FZD5) | Molecule | stoichiometry N [1] | further results |
| --- | --- | --- | --- | --- | --- |
| 8 % of cells | 34 % of cells | 58 % of cells | DEP–GFP, wt (minimal DEP domain of DVL2) (from UniProt O14641) I447F |  |  |
| 7 % of cells | 41 % of cells | 52 % of cells | DEP–GFP, wt (minimal DEP domain of DVL2) (from UniProt O14641) I447M |  |  |
| 75 % of cells | 22 % of cells | 3 % of cells | DEP–GFP, wt (minimal DEP domain of DVL2) (from UniProt O14641) K446M |  |  |
| 80 % of cells | 20 % of cells |  | DEP–GFP, wt (minimal DEP domain of DVL2) (from UniProt O14641) L445E |  |  |

Second part, the molecule before the results:

| Molecule | other: % of cells with no FZD5 recruitment (SNAP–FZD5) | other: % of cells with weak FZD5 recruitment (SNAP–FZD5) | other: % of cells with strong FZD5 recruitment (SNAP–FZD5) | stoichiometry N [1] | further results |
| --- | --- | --- | --- | --- | --- |
| DEP–GFP, wt (minimal DEP domain of DVL2) (from UniProt O14641) I447T | 7 % of cells | 32 % of cells | 61 % of cells |  |  |
| Lip–DEP_(417-511), DVL2 DEP domain, wt (domain or fragment, human, UniProt O14641 417-511, looked up, Dishevelled 2 (DVL2), human, DEP domain, residues 417-511; Between the 6xHis-Lip tag and the domain stands the linker ENLYFQS (TEV site); also called wt DEP domain; DVL2 DEP_(417-511); source: E. coli BL21-CodonPlus(DE3)-RIL, purified (NiNTA); not shown: Lip, N-terminal, kept) LSVHTDMASVTKAMAAPESGLEVRDRMWLKITIPNAFLGSDVVDWLYHHVEGFPERREARKYASGLLKAGLIRHTVNKITFSEQCYYVFGDLSGG |  |  |  | 2 and 4 |  |
| Lip–DEP_(417-511) I447F (domain or fragment, human, UniProt O14641 417-511, looked up, Dishevelled 2 (DVL2), human, DEP domain, residues 417-511, with I447F; also called tetramerisation mutant; source: E. coli BL21-CodonPlus(DE3)-RIL, purified (NiNTA)) LSVHTDMASVTKAMAAPESGLEVRDRMWLKFTIPNAFLGSDVVDWLYHHVEGFPERREARKYASGLLKAGLIRHTVNKITFSEQCYYVFGDLSGG |  |  |  | 2 |  |
| Lip–DEP_(417-511) I447M (domain or fragment, human, UniProt O14641 417-511, looked up, Dishevelled 2 (DVL2), human, DEP domain, residues 417-511, with I447M; also called tetramerisation mutant; source: E. coli BL21-CodonPlus(DE3)-RIL, purified (NiNTA)) LSVHTDMASVTKAMAAPESGLEVRDRMWLKMTIPNAFLGSDVVDWLYHHVEGFPERREARKYASGLLKAGLIRHTVNKITFSEQCYYVFGDLSGG |  |  |  | 2 |  |
| Lip–DEP_(417-511) I447T (domain or fragment, human, UniProt O14641 417-511, looked up, Dishevelled 2 (DVL2), human, DEP domain, residues 417-511, with I447T; also called tetramerisation mutant; source: E. coli BL21-CodonPlus(DE3)-RIL, purified (NiNTA)) LSVHTDMASVTKAMAAPESGLEVRDRMWLKTTIPNAFLGSDVVDWLYHHVEGFPERREARKYASGLLKAGLIRHTVNKITFSEQCYYVFGDLSGG |  |  |  | 2 |  |
| Lip–DEP_(417-511) K446M (domain or fragment, human, UniProt O14641 417-511, looked up, Dishevelled 2 (DVL2), human, DEP domain, residues 417-511, with K446M; source: E. coli BL21-CodonPlus(DE3)-RIL, purified (NiNTA)) LSVHTDMASVTKAMAAPESGLEVRDRMWLMITIPNAFLGSDVVDWLYHHVEGFPERREARKYASGLLKAGLIRHTVNKITFSEQCYYVFGDLSGG |  |  |  |  | stoichiometry N [2]: 4 |
| SEFFVDVM (C-terminal peptide of Dishevelled 1 (Dvl1); Lee et al., 2015; also called DVL-C peptide; source: kindly provided by Jie Zheng (University of California, Los Angeles)) [C-terminal peptide from Dvl1 (DVL-C)] |  |  |  |  | binding result [3]: binds |
